Measurements taken from patent publication US20220119534A1 (DRAGONFLY THERAPEUTICS, published 2022).
Several values for one entry are separate records, joined by “and”; a condition that tells them apart may be missing. Equal values may be shown once.

Legend:
mFc-hNKG2D [1] = molecular target: T1, mFc-hNKG2D (human, UniProt P26718 73-216); experiment: SPR Biacore 8K 37 C; mFc-hNKG2D captured on anti-mFc chip, TriNKET as analyte; 1:1 kinetic fit
T1 construct: extracellular domain; Made in house (Dragonfly Tx); the order of tag and ECD follows the name mFc-hNKG2D; also called mFc-tagged human NKG2D; not shown: mouse Fc tag
T1 sequence (looked up): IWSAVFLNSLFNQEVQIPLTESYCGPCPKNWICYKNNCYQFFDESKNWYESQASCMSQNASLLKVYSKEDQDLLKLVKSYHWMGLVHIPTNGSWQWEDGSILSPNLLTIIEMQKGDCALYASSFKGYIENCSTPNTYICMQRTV

Human CLEC12A-His = molecular target: T2, Human CLEC12A-His (human, UniProt Q5QGZ9 65-265); experiment: SPR Biacore 8K 37 C; TriNKET captured on anti-hFc chip, hCLEC12A-His as analyte; 1:1 fit; un-oxidized control, n=2
T2 construct: Recombinant soluble protein made in house (Dragonfly Tx); The hCLEC12A spot of the HuProt array is written under this molecule as well; also called hCLEC12A-His; hCLEC12A; not shown: His tag
T2 sequence: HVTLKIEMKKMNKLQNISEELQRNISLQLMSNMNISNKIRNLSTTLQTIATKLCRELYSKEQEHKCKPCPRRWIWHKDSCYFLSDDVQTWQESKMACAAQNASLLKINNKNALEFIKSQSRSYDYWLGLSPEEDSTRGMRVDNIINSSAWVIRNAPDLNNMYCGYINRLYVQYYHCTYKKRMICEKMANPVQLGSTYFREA

mFc-hNKG2D [2] = molecular target: T1, mFc-hNKG2D; experiment: SPR Biacore 8K 37 C; mFc-hNKG2D captured on anti-mFc chip, TriNKET as analyte; 1:1 kinetic fit; pH 5.0 control
Experimental: Association was monitored for 60 seconds and dissociation was monitored for 60 seconds. Surfaces were regenerated between cycles with three pulses of 10 mM glycine-HCl, pH 1.7 injected for 20 seconds at 100 μL/min. HBS-EP+ (1×) buffer was used throughout the experiment. Data were analyzed using Biacore 8K Insight evaluation software (GE Healthcare).

[3] = molecular target: T3, recombinant human CLEC12A-His (human, UniProt Q5QGZ9 65-265); experiment: SPR 37C, TriNKET captured on anti-hFc
T3 construct: also called hCLEC12A-His; hCLEC12A
T3 sequence: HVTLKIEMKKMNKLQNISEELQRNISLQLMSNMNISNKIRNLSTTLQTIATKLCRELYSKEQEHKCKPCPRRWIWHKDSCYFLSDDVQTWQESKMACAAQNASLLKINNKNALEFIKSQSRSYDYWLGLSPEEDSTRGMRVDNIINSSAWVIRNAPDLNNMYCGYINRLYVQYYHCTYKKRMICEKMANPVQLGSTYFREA
Experimental: Briefly, human Fc specific antibodies were covalently immobilized at a density of about 8000-10000 resonance units (RU) on carboxy methyl dextran matrix of a CM5 biosensor chip to create an anti-hFc IgG chip. […] Association was monitored for 300 seconds, and dissociation was monitored for 900 seconds. Surfaces were regenerated between cycles with three pulses of 10 mM glycine-HCl (pH 1.7) injected for 20 seconds at 100 μL/min.

[4] = molecular target: T4, recombinant cynomolgus FcRn (cynomolgus monkey, UniProt Q8SPV9 24-297; Q8SPW0 21-119); experiment: SPR 25C, pH 6.0, steady state; pH 6.0; third replicate
T4 construct: also called cFcRn; cyno FcRn
Experimental: Each FcRn binding experiment consisted of multiple cycles utilizing varying concentrations of analytes. […] As no-signal, negative controls, a 0 nM blank cycle was placed at the start of each concentration series, and a blank amine coupling modified chip surface lacking FcRn were used. Each experimental cycle included association, dissociation, and regeneration steps. The association step consisted of 60 sec analyte injection and was followed by a 60 sec dissociation step. Surface regeneration (60 sec injection of HBS-EP+ buffer, pH 7.4) completed each kinetic cycle. All steps were executed at a flow rate of 30 μL/min and at 25° C. MBS-EP+ buffer, pH 6.0 was used as a running buffer. The data were fitted to a steady state affinity model with Biacore Insight evaluation software. Chi² (calculated by the software) related to the calculated Rₘₐₓ was used to assess goodness of the fit.

Human CD64 = molecular target: T5, Human CD64 (human, UniProt P12314 16-288, biotinylated); experiment: SPR, human CD64 captured
T5 construct: Bought recombinant receptor; also called hFcγRI; Human CD64 (FcγRI)

mFc-hNKG2D [5] = molecular target: T6, mFc-hNKG2D (human, UniProt P26718 73-216); experiment: SPR, 37 C, mFc-hNKG2D captured, kinetic fit; average
T6 construct: extracellular domain; Recombinant mFc-tagged NKG2D dimer, made in house; also called human NKG2D; not shown: mouse Fc tag
T6 sequence (looked up): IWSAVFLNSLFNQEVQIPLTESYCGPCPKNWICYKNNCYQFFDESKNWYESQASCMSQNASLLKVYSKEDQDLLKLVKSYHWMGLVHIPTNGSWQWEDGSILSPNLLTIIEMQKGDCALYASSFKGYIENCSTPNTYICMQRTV

T5 sequence (P12314 16-288 limits assumed): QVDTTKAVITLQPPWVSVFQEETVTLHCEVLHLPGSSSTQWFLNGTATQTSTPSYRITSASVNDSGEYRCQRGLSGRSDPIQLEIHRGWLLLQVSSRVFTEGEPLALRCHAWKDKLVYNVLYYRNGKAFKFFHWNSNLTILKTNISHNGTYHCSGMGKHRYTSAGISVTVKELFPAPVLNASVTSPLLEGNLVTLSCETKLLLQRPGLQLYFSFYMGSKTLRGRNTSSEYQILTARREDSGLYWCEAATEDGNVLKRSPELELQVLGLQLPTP
T4 sequence (Q8SPV9 24-297 limits assumed, chain 1 of 2): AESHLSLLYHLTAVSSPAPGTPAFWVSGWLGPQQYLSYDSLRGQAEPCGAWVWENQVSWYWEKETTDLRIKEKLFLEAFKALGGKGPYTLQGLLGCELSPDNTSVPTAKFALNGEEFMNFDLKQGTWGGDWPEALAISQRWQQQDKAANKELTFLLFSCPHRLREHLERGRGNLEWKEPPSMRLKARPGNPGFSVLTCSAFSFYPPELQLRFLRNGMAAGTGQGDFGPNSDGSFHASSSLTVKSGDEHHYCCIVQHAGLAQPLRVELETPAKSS
T4 sequence (Q8SPW0 21-119 limits assumed, chain 2 of 2): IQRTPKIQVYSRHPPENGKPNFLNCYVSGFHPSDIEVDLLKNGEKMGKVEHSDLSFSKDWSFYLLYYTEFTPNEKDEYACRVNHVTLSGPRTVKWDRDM

B1: F3'-1602 TriNKET (bispecific antibody, human IgG1, kappa)
chain: QLQLQESGPGLVKPSETLSLTCTVSGFSLTNYGLHWIRQPPGKCLEWIGVIWSGGKTDYNPSLKSRVTISKDTSKNQFSLKLSSVQAADTAVYYCAKYDYDDSLDYWGQGTLVTVSSGGGGSGGGGSGGGGSGGGGSDIQMTQSPSSLSASVGDRVTITCHASQNINFWLSWYQQKPGKAPKLLIYEASNLHTGVPSRFSGSGSGTRFTLTISSLQPEDIATYYCQQSHSYPLTFGCGTKLEIKGSDKTHTCPPCPAPELLGGPSVFLFPPKPKDTLMISRTPEVTCVVVDVSHEDPEVKFNWYVDGVEVHNAKTKPREEQYNSTYRVVSVLTVLHQDWLNGKEYKCKVSNKALPAPIEKTISKAKGQPREPRVYTLPPCRDELTKNQVSLTCLVKGFYPSDIAVEWESNGQPENNYKTTPPVLVSDGSFTLYSKLTVDKSRWQQGNVFSCSVMHEALHNHYTQKSLSLSPG
heavy: EVQLVESGGGLVKPGGSLRLSCAASGFTFSSYSMNWVRQAPGKGLEWVSSISSSSSYIYYADSVKGRFTISRDNAKNSLYLQMNSLRAEDTAVYYCARGAPIGAAAGWFDPWGQGTLVTVSSASTKGPSVFPLAPSSKSTSGGTAALGCLVKDYFPEPVTVSWNSGALTSGVHTFPAVLQSSGLYSLSSVVTVPSSSLGTQTYICNVNHKPSNTKVDKKVEPKSCDKTHTCPPCPAPELLGGPSVFLFPPKPKDTLMISRTPEVTCVVVDVSHEDPEVKFNWYVDGVEVHNAKTKPREEQYNSTYRVVSVLTVLHQDWLNGKEYKCKVSNKALPAPIEKTISKAKGQPREPQVCTLPPSRDELTENQVSLTCLVKGFYPSDIAVEWESNGQPENNYKTTPPVLDSDGSFFLYSWLTVDKSRWQQGNVFSCSVMHEALHNHYTQKSLSLSPG
light: DIQMTQSPSSVSASVGDRVTITCRASQGISSWLAWYQQKPGKAPKLLIYAASSLQSGVPSRFSGSGSGTDFTLTISSLQPEDFATYYCQQGVSFPRTFGGGTKVEIKRTVAAPSVFIFPPSDEQLKSGTASVVCLLNNFYPREAKVQWKVDNALQSGNSQESVTEQDSKDSTYSLSSTLTLSKADYEKHKVYACEVTHQGLSSPVTKSFNRGEC
notes: Trispecific F3' format: CLEC12A scFv-Fc paired with NKG2D Fab-Fc; Stressed and control samples of the stability studies are the same molecule; also called AB0237
For B1, the koff (mFc-hNKG2D [1]) was 0.126 s⁻¹ and 0.13 s⁻¹ and 0.131 s⁻¹ and 0.132 s⁻¹, the kon (mFc-hNKG2D [1]) was 180000 M⁻¹ s⁻¹ and 184000 M⁻¹ s⁻¹ and 175000 M⁻¹ s⁻¹ and the Kd (Human CLEC12A-His) was 1.1 nM. The koff (Human CLEC12A-His) was 0.000858 s⁻¹, the kon (Human CLEC12A-His) was 799000 M⁻¹ s⁻¹ and the Kd (mFc-hNKG2D [2]) was 678 nM. The koff (mFc-hNKG2D [2]) was 0.128 s⁻¹ and the kon (mFc-hNKG2D [2]) was 189000 M⁻¹ s⁻¹.

B2: F3'-1602 TriNKET (other)
chain: QLQLQESGPGLVKPSETLSLTCTVSGFSLTNYGLHWIRQPPGKCLEWIGVIWSGGKTDYNPSLKSRVTISKDTSKNQFSLKLSSVQAADTAVYYCAKYDYDDSLDYWGQGTLVTVSSGGGGSGGGGSGGGGSGGGGSDIQMTQSPSSLSASVGDRVTITCHASQNINFWLSWYQQKPGKAPKLLIYEASNLHTGVPSRFSGSGSGTRFTLTISSLQPEDIATYYCQQSHSYPLTFGCGTKLEIKGSDKTHTCPPCPAPELLGGPSVFLFPPKPKDTLMISRTPEVTCVVVDVSHEDPEVKFNWYVDGVEVHNAKTKPREEQYNSTYRVVSVLTVLHQDWLNGKEYKCKVSNKALPAPIEKTISKAKGQPREPRVYTLPPCRDELTKNQVSLTCLVKGFYPSDIAVEWESNGQPENNYKTTPPVLVSDGSFTLYSKLTVDKSRWQQGNVFSCSVMHEALHNHYTQKSLSLSPG
heavy: EVQLVESGGGLVKPGGSLRLSCAASGFTFSSYSMNWVRQAPGKGLEWVSSISSSSSYIYYADSVKGRFTISRDNAKNSLYLQMNSLRAEDTAVYYCARGAPIGAAAGWFDPWGQGTLVTVSSASTKGPSVFPLAPSSKSTSGGTAALGCLVKDYFPEPVTVSWNSGALTSGVHTFPAVLQSSGLYSLSSVVTVPSSSLGTQTYICNVNHKPSNTKVDKKVEPKSCDKTHTCPPCPAPELLGGPSVFLFPPKPKDTLMISRTPEVTCVVVDVSHEDPEVKFNWYVDGVEVHNAKTKPREEQYNSTYRVVSVLTVLHQDWLNGKEYKCKVSNKALPAPIEKTISKAKGQPREPQVCTLPPSRDELTENQVSLTCLVKGFYPSDIAVEWESNGQPENNYKTTPPVLDSDGSFFLYSWLTVDKSRWQQGNVFSCSVMHEALHNHYTQKSLSLSPG
light: DIQMTQSPSSVSASVGDRVTITCRASQGISSWLAWYQQKPGKAPKLLIYAASSLQSGVPSRFSGSGSGTDFTLTISSLQPEDFATYYCQQGVSFPRTFGGGTKVEIKRTVAAPSVFIFPPSDEQLKSGTASVVCLLNNFYPREAKVQWKVDNALQSGNSQESVTEQDSKDSTYSLSSTLTLSKADYEKHKVYACEVTHQGLSSPVTKSFNRGEC
notes: CLEC12A scFv-Fc, NKG2D A49MI Fab-Fc, human IgG1 Fc; also called AB0237
In the case of B2, the Kd [3] is reported as 0.58 nM and 0.59 nM and 0.57 nM and 0.6 nM, the koff [3] is reported as 0.000494 s⁻¹ and 0.000489 s⁻¹ and 0.000499 s⁻¹ and the kon [3] is reported as 854000 M⁻¹ s⁻¹ and 833000 M⁻¹ s⁻¹ and 863000 M⁻¹ s⁻¹ and 826000 M⁻¹ s⁻¹. The Kd [4] was 1400 nM.

B3: AB0192 TriNKET (other)
chain: EVQLVESGGGVVQPGGSLRLSCAASGFTFNAFGMHWVRQAPGKCLEWVAFISSGSTSIYYANTVKGRFTISRDNSKNTLYLQMNSLRAEDTAVYYCARDGYPTGGAMDYWGQGTSVTVSSGGGGSGGGGSGGGGSGGGGSDIQMTQSPSSLSASVGDRVTITCKASQDIYNYLSWFQQKPGKAPKPLIYRANILVSGVPSRFSGSGSGQDYTFTISSLQPEDIATYYCLQFDAFPFTFGCGTKLEIKGSDKTHTCPPCPAPELLGGPSVFLFPPKPKDTLMISRTPEVTCVVVDVSHEDPEVKFNWYVDGVEVHNAKTKPREEQYNSTYRVVSVLTVLHQDWLNGKEYKCKVSNKALPAPIEKTISKAKGQPREPRVYTLPPCRDELTKNQVSLTCLVKGFYPSDIAVEWESNGQPENNYKTTPPVLVSDGSFTLYSKLTVDKSRWQQGNVFSCSVMHEALHNHYTQKSLSLSPG
heavy: EVQLVESGGGLVKPGGSLRLSCAASGFTFSSYSMNWVRQAPGKGLEWVSSISSSSSYIYYADSVKGRFTISRDNAKNSLYLQMNSLRAEDTAVYYCARGAPIGAAAGWFDPWGQGTLVTVSSASTKGPSVFPLAPSSKSTSGGTAALGCLVKDYFPEPVTVSWNSGALTSGVHTFPAVLQSSGLYSLSSVVTVPSSSLGTQTYICNVNHKPSNTKVDKKVEPKSCDKTHTCPPCPAPELLGGPSVFLFPPKPKDTLMISRTPEVTCVVVDVSHEDPEVKFNWYVDGVEVHNAKTKPREEQYNSTYRVVSVLTVLHQDWLNGKEYKCKVSNKALPAPIEKTISKAKGQPREPQVCTLPPSRDELTENQVSLTCLVKGFYPSDIAVEWESNGQPENNYKTTPPVLDSDGSFFLYSWLTVDKSRWQQGNVFSCSVMHEALHNHYTQKSLSLSPG
light: DIQMTQSPSSVSASVGDRVTITCRASQGISSWLAWYQQKPGKAPKLLIYAASSLQSGVPSRFSGSGSGTDFTLTISSLQPEDFATYYCQQGVSFPRTFGGGTKVEIKRTVAAPSVFIFPPSDEQLKSGTASVVCLLNNFYPREAKVQWKVDNALQSGNSQESVTEQDSKDSTYSLSSTLTLSKADYEKHKVYACEVTHQGLSSPVTKSFNRGEC
notes: the condition stands under assay; also called AB0192 Lot AB0192-005
B3 was tested, and the Kd (Human CD64) was 6.1 nM and 5.5 nM and 3.5 nM, the koff (Human CD64) was 0.00029 s⁻¹ and 0.00026 s⁻¹ and 0.00018 s⁻¹ and the kon (Human CD64) was 47000 M⁻¹ s⁻¹ and 52000 M⁻¹ s⁻¹. The Kd (mFc-hNKG2D [5]) was 779 nM.
